The results in this text go back to IntAct's records for PubMed 24076653.

To fix the notation:
B1: BAR/IMD domain-containing adapter protein 2 (Homo sapiens), Q9UQB8-4 (parent)
chain: MSLSRSEEMHRLTENVYKTIMEQFNPSLRNFIAMGKNYEKALAGVTYAAKGYFDALVKMGELASESQGSKELGDVLFQMAEVHRQIQNQLEEMLKSFHNELLTQLEQKVELDSRYLSAALKKYQTEQRSKGDALDKCQAELKKLRKKSQGSKNPQKYSDKELQYIDAISNKQGELENYVSDGYKTALTEERRRFCFLVEKQCAVAKNSAAYHSKGKELLAQKLPLWQQACADPSKIPERAVQLMQQVASNGATLPSALSASKSNLVISDPIPGAKPLPVPPELAPFVGRMSAQESTPIMNGVTGPDGEDYSPWADRKAAQPKSLSPPQSQSKLSDSYSNTLPVRKSVTPKNSYATTENKTLPRSSSMAAGLERNGRMRVKAIFSHAAGDNSTLLSFKEGDLITLLVPEARDGWHYGESEKTKMRGWFPFSYTRVLDSDGSDRLHMSLQQGKSSSTGNLLDKDDLAIPPPDYGAASRAFPAQTASGFKQRPYSVAVPAFSQGLDDYGARSMSSGSGTLVSTV

The variants in the experiment derive from B1. The note with it: with vasp_human VASP.
Consider MSLSRSEEMHRLTENVYKTIMEQFNPSLRNFIAMGKNYEKALAGVTYAAKGYFDALVKMGELASESQGSKELGDVLFQMAEVHRQIQNQLEEMLKSFHNELLTQLEQKVELDSRYLSAALKKYQTEQRSKGDALDKCQAELKKLRKKSQGSKNPQKYSDKELQYIDAISNKQGELENYVSDGYKTALTEERRRFCFLVEKQCAVAKNSAAYHSKGKELLAQKLPLWQQACADPSKIPERAVQLMQQVASNGATLPSALSASKSNLVISDPIPGAKPLPVPPELAPFVGRMSAQESTPIMNGVTGPDGEDYSPWADRKAAQPKSLSPPQSQSKLSDSYSNTLPVRKSVTPKNSYATTENKTLPRSSSMAAGLERNGRMRVKAIFSHAAGDNSTLLSFKEGDLITLLVPEARDGGHYGESEKTKMRGWFPFSYTRVLDSDGSDRLHMSLQQGKSSSTGNLLDKDDLAIPPPDYGAASRAFPAQTASGFKQRPYSVAVPAFSQGLDDYGARSMSSGSGTLVSTV [W413G], for which the “effect of a mutation on the interaction” value was “disrupting interaction”.
